The record followed here is patent US20240132578A1.

Holding throughout (assay): cell-based or functional assay
Assay [1] addresses HIV-1 Env of pseudovirus MGRM-G-024 (HIV-1).
For assay [2], the target named is HIV-1 Env of isolate MGRM-D-020 (clade D pseudovirus) (HIV-1).
In assay [3] the target is HIV-1 Env of pseudovirus MGRM-F1-021 (clade F) (HIV-1).
The target of assay [4] is HIV-1 MGRM-G-004 Env (pseudovirus) (HIV-1).
Assay [5] has as its target HIV-1 Env of isolate MGRM-D-003 (clade D pseudovirus) (HIV-1).
Assay [6] addresses HIV-1 Env of isolate MGRM-D-001 (clade D pseudovirus) (HIV-1).
The target of assay [7] is HIV-1 envelope glycoprotein (Env) of isolate MGRM-C-010 (HIV-1).
The target of assay [8] is HIV-1 MGRM-AG-002 Env (pseudovirus) (HIV-1).
For assay [9], the target named is HIV-1 MGRM-AE-006 Env (pseudovirus) (HIV-1).
For assay [10], the target named is HIV-1 isolate 94UG114 envelope glycoprotein (Env), clade D, on pseudovirus (HIV-1).
Assay [11] addresses HIV-1 Env of isolate TRJ0.58 (Acute), clade B (HIV-1).
For assay [12], the target named is HIV-1 IAVI-C22 envelope (Env) on pseudovirus (HIV-1).
The target of assay [13] is HIV-1 Env of isolate APV_13, clade B (HIV-1).

A value given as a limit tells only on which side of the number the result lay.

1443_C16 (PG16) (TCN-116) (antibody), sequence (VH): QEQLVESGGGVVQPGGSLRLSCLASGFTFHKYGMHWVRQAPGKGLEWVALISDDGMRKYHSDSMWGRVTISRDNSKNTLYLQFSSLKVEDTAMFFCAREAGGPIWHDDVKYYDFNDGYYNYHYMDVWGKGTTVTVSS
1443_C16 (PG16) (TCN-116) (antibody), sequence (VL): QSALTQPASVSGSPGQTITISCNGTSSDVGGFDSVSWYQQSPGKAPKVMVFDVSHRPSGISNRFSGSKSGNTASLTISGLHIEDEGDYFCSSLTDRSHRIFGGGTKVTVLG

For 1495_C14 (PGC14) (antibody), the IC50 (µg/ml), pseudovirus neutralization in [1], in [4], in [7], in assay [8], in [9] and in [10] was above 50 µg/mL in each case. The IC50 (µg/ml), pseudovirus neutralization in assay [11] and in assay [13] was above 50 µg/mL throughout. Also, the IC50, pseudovirus neutralization in assay [2], in [5] and in assay [6] was above 50 µg/mL throughout. Besides, in assay [3], the IC50 (commonly the concentration that gives 50% inhibition) came out at 46 µg/mL. The same substance showed a neutralization IC50 in assay [12] of 9.5 µg/mL.

On to 4E10 (antibody), for which the IC50 (µg/ml), pseudovirus neutralization in [1] was 1.57 µg/mL; in assay [4] it was 1.47 µg/mL; in assay [7], 11 µg/mL; in assay [8], 0.8 µg/mL; in assay [9] it was 0.23 µg/mL; in assay [10], 9.72 µg/mL. Also, the figures for the IC50 (µg/ml), pseudovirus neutralization in [11] and in assay [13] were 11.9 µg/mL and 7.33 µg/mL, respectively. The IC50, pseudovirus neutralization in [2] is above 50 µg/mL; in assay [5], 2.49 µg/mL; in [6] it was 1.84 µg/mL. In [3], this substance gave a half-maximal inhibitory concentration (IC50) of 1.87 µg/mL. In assay [12], this substance came in with a neutralization IC50 of 1.02 µg/mL.

For 1443_C16 (PG16) (TCN-116) (antibody), the IC50 (µg/ml), pseudovirus neutralization in assay [1] was 0.01 µg/mL; in [4], above 50 µg/mL; in [7] it was above 50 µg/mL; in assay [8], 0.03 µg/mL; in assay [9] it was 0.03 µg/mL; in assay [10], above 50 µg/mL. Besides, the IC50 (µg/ml), pseudovirus neutralization in assay [11] was 1.16 µg/mL; in assay [13] it was above 50 µg/mL. Further, the results for the IC50, pseudovirus neutralization in [2], in [5] and in [6] were 16.3 µg/mL, 0.01 µg/mL and above 50 µg/mL, respectively. Moreover, in assay [3], the IC50 was above 50 µg/mL. This substance yielded a neutralization IC50 in [12] of 0.0687 µg/mL.

For 2F5 (antibody), the IC50 (µg/ml), pseudovirus neutralization was 1.07 µg/mL in assay [1]; above 50 µg/mL in [4]; above 50 µg/mL in assay [7]; 0.54 µg/mL in [8]; 0.18 µg/mL in [9]; above 50 µg/mL in assay [10]. In addition, the IC50 (µg/ml), pseudovirus neutralization in assay [11] is above 50 µg/mL; in assay [13], 3.81 µg/mL. In addition, the results for the IC50, pseudovirus neutralization in assay [2], in assay [5] and in [6] were above 50 µg/mL, above 50 µg/mL and 0.63 µg/mL, respectively. The same substance had a concentration for half-maximal inhibition (IC50) in assay [3] of 1.37 µg/mL. For the same substance, the neutralization IC50 in [12] is above 50 µg/mL.
